# Read-outs that look alike come from different tables or passages of the source.
# Assays:
# [1] = molecular target: HIV-1 capsid protein CA N21C/A22C (HIV-1 NL4-3); assay: cross-linking; engineered disulfide cross-links read by non-reducing SDS-PAGE; after assembly: purified protein at 1 mg/mL (also about 4 and 10 mg/mL) dialyzed into 50 mM Tris-HCl, pH 8.0, 1 M NaCl overnight at 4 °C, no reductant
# [2] = molecular target: HIV-1 capsid protein CA N21C/A22C (HIV-1 NL4-3); assay: as above; remark: listed apart in the source
substance,measurement,setting,value
HIV-1 capsid protein CA N21C/A22C (natural protein),stoichiometry N,[1],6
same,stoichiometry N,[2],5
